Measurements reported in the DeepSol protein solubility set.

Assay: soluble on expression in E. coli; label from the status in PepcDB or PDB records

Sequence	soluble on expression in E. coli
SLRAKNQLFLLSPHYLRQVKESSGSRLIQQRLLHQQQPLHPEWAALAKKQLKGKNPEDLIWHTPEGISIKPLYSKRDTMDLPEELPGVKPFTRGPYPTMYTFRPWTIRQYAGFSTVEESNKFYKDNIKAGQQGLSVAFDLATHRGYDSDNPRVRGDVGMAGVAIDTVEDTKILFDGIPLEKMSVSMTMNGAVIPVLANFIVTGEEQGVPKEKLTGTIQNDILKEFMVRNTYIFPPEPSMKIIADIFEYTAKHMPKFNSISISGYHMQEAGADAILELAYTLADGLEYSRTGLQAGLTIDEFAPRLSFFWGIGMNFYMEIAKMRAGRRLWAHLIEKMFQPKNSKSLLLRAHCQTSGWSLTEQDPYNNIVRTAIEAMAAVFGGTQSLHTNSFDEALGLPTVKSARIARNTQIIIQEESGIPKVADPWGGSYMMECLTNDVYDAALKLINEIEEMGGMAKAVAEGIPKLRIEECAARRQARIDSGSEVIVGVNKYQLEKEDTVEVLAIDNTSVRNRQIEKLKKIKSSRDQALAERCLAALTECAASGDGNILALAVDASRARCTVGEITDALKKVFGEHKANDRMVSGAYRQEFGESKEITSAIKRVHKFMEREGRRPRLLVAKMGQDGHDRGAKVIATGFADLGFDVDIGPLFQTPREVAQQAVDADVHAVGVSTLAAGHKTLVPELIKELNSLGRPDILVMCGGVIPPQDYEFLFEVGVSNVFGPGTRIPKAAVQVLDDIEKCLEKKQQSV	not soluble
MIDAVATDSSSTPSNEKPRRARRTRMTGAERRQQLLEIGRTLFAAKGFEGTSVEEIAAKAGVSKPVVYEHFGGKEGLYAVVVDREMRRLLDMVTGSLTAGHPRELCEQAAFALLDYIEEYTDGFRILVRDSPIPQSTGTFASLISDIATQVEDILGREFKNRGFDAKLAPLYAQALVGMVALTGQWWLDVRRPKKAEVAAHLVNLAWHGLDGLEPKPRLIGHRKS	not soluble
MAVKVAINGFGRIGRLAFRRIQEVEGLEVVAVNDLTDDDMLAHLLKYDTMQGRFTGEVEVVDGGFRVNGKEVKSFSEPDASKLPWKDLNIDVVLECTGFYTDKDKAQAHIEAGAKKVLISAPATGDLKTIVFNTNHQELDGSETVVSGASSTTNSLAPVAKVLNDDFGLVEGLMTTIHAYTGDQNTQDAPHRKGDKRRARAAAENIIPNSTGAAKAIGKVIPEIDGKLDGGAQRVPVATGSLTELTVVLEKQDVTVEQVNEAMKNASNESFGYTEDEIVSSDVVGMTYGSLFDATQTRVMSVGDRQLVKVAAWYDNEMSYTAQLVRTLAYLAELSK	soluble
SARRISSQGKVTISVDEYSSNPTQAFTHYNINQSRFQPPHVHMVEPLPYDAPKSVGHTRFVCVSDTHSRTDGIQMPFGDVLLHTGDFTELGLPSEVKKFNDWLGGLPYEYKVVIAGNHELTFDKDFMAELIKQDYYRFPSVSKLRSEDFDDVQSLLTNCVYLQDSEVTIKGFRIYGAPWTLWFNGWGFNLPRGQSLLDKWNQIPEDVDILMTHGPPLGFRDWLPKELQRVGCVELLNTVQKRVRPKLHAYGGIHEGYGIMTDGYTTFINSSTCTVSFQPTNPPIIFDLPNPGNS	soluble
MGSDKIHHHHHHMKYLIVVAHPDDEVLGAGASISRWTQNGDIVDVAIMCAEAKARAFRPDDNELEDDTNASTKYLGVDRIFEATFPNIEMNTVPHLRLVQFIESAIKESEPDIVITHHPADTNNDHLQTSMACQEAIRLFQRRPEVKRVKEFWYMEVPSCTEWAINNAMNLFRPNCYVEVGQEGVDAKITALGMYRGVMRPYPHPRSAEYITGLAAVRGSQWGTNYAESFEIVLREY	not soluble
MIFAYNKEQVGDVLLVILEDTKDIKRSVERKGKVARVTADETGKTLAWNIFEASSLIDIEGNGQVFLSDQDVAILNEELAKEGFEERLENTQGPVFVVGQIDEMVPHPDSDHLNICQVNIGDKKVQIVAGAPNASPGLKTIVALPGAMMPSGALIFPGKLRGEDSYGMMCSPRELALPNAPQKRGIIELDDSAVVGEAFDPAKHWKRLEHHHHHH	soluble
GKPIRSPGVLLDIDSRRTAEAERDRLNELLQIFTAAVPGVVYAKDLEGRMLVANRGTAELVGKPPEFFIGKTDLEFLDDEQQARVLMETDQRIMQSNVSEQIEEKVNLADGSAAIWLSTKAPLLDRN	not soluble
MVEKEEAGGGISEEEAAQYDRQIRLWGLEAQKRLRASRVLLVGLKGLGAEIAKNLILAGVKGLTMLDHEQVTPEDPGAQFLIRTGSVGRNRAEASLERAQNLNPMVDVKVDTEDIEKKPESFFTQFDAVCLTCCSRDVIVKVDQICHKNSIKFFTGDVFGYHGYTFANLGEHEFVEEKTKVAKVSQGVEDGPDTKRAKLDSSETTMVKKKVVFCPVKEALEVDWSSEKAKAALKRTTSDYFLLQVLLKFRTDKGRDPSSDTYEEDSELLLQIRNDVLDSLGISPDLLPEDFVRYCFSEMAPVCAVVGGILAQEIVKALSQRDPPHNNFFFFDGMKGNGIVECLGPK	soluble
MSLAQYPVIGIDDDEFATAKKLITKQEVRAVTLSKLRLQDDLVMWDIGAGSASVSIEASNLMPNGRIFALERNPQYLGFIRDNLKKFVARNVTLVEAFAPEGLDDLPDPDRVFIGGSGGMLEEIIDAVDRRLKSEGVIVLNAVTLDTLTKAVEFLEDHGYMVEVACVNVAKTKGLTEYKMFESHNPVYIITAWKSDEGHHHHHH	soluble
ATHEVHMLNKGESGAMVFEPAFVRAEPGDVINFVPTDKSHNVEAIKEILPEGVESFKSKINESYTLTVTEPGLYGVKCTPHFGMGMVGLVQVGDAPENLDAAKTAKMPKKARERMDAELAQVN	soluble
MSLRDKKGPVNKRVDFLSNKLNKYSIRKFTVGTASILIGSLMYLGTQQEAEAAENNIENPTTLKDNVQSKEVKIEEVTNKDTAPQGVEAKSEVTSNKDTIEHEASVKAEDISKKEDTPKEVANVAEVQPKSSVTHNAEAPKVRKARSVDEGSFDITRDSKNVVESTPITIQGKEHFEGYGSVDIQKNPTDLGVSEVTRFNVGNESNGLIGALQLKNKIDFSKDFNFKVRVANNHQSNTTGADGWGFLFSKGNAEEYLTNGGILGDKGLVNSGGFKIDTGYIYTSSMDKTEKQAGQGYRGYGAFVKNDSSGNSQMVGENIDKSKTNFLNYADNSTNTSDGKFHGQRLNDVILTYVASTGKMRAEYAGKTWETSITDLGLSKNQAYNFLITSSQRWGLNQGINANGWMRTDLKGSEFTFTPEAPKTITELEKKLKRFHSRKNVNLIRIEGHHHHHH	not soluble
MKIGILTQPLSNNYGGILQALALQTVLRSMGHETVILSREYDYPPFRLCLMRILSVLKCIVRKYILRDNRAIIANPFLHFYATDKTQVYDDNEIQAFIRKNLKCSVRLQSTWILKIYVRLHHFDAFLVGSDQVWRESFSPCITNFFLDFLSQKCRAKRIAYGASFGVEQNPISVASLNQCVELAKRFDAISVREQSGVKIMKETFHLSACQVLDPTLLLPVDFYRSFMQKSDMDSSGLVSYLLDGNEEKRNIIAVAREQLQLSQTELLLFPSRYKDEVPRFSSVSSWLSAFANADFVVTDSFHGCVFSIIFRKPFVVISNSGRGNERFFSLLDTFGLNDRLVFSYEEFVDKEEILLIEQDYTEVERKYENLKVKSLEFLFQALNEN	not soluble
MNTPNSSCTILFENLYDNDLALKLFNNRTIVDNILRNVKGDINNRLELRLVNKSFNLAAIHVIRKENRTVVFHKFNRCDRLHKISPCPDCSVHLNSVKLNKKNIFQYARFLKQTMKIMVIKIRIEDSKRVCCMITDVHQVIHKSLIGSDYDKVEEFVGIDQISFSTCIPCEKIAANCKVFGPVQNDMFNAILRLKHHYDVLQVKDMRLYKLMILNKEDPTVVEDFINSNITCSKLTIFLMYMYEKEAFGYSLPREFLDLLIKKWNVKTVEIVPRQDQPIPYYFHCNTDFIVPKAKFYVDYWTQPRSKYTLDGVEIDLQLTKVVEQQIKNRKSLFDNFIANARRIFPSNKITVRFSKEVCQEMMSQGNVEDFISGIILMTQKDAQPNSHISLKLYPEEVDAPLIDSFLRENFEKKFDSWNLETVSDSSANLPAEKCYQFFNQSTNCKIIFYICC	not soluble
MGHHHHHHSHMTDCEFGYIYRLAQDYLQCVLQIPQPGSGPSKTSRVLQNVAFSVQKEVEKNLKSCLDNVNVVSVDTARTLFNQVMEKEFEDGIINWGRIVTIFAFEGILIKKLLRQQIAPDVDTYKEISYFVAEFIMNNTGEWIRQNGGWENGFVKKFEPKSGWMTFLEVTGKICEMLSLLKQYC	not soluble
